# Measured values reported in the supplement of paper PMC7877785.
# ± gives the uncertainty stated by the source.
# Test: self-splicing fitness, log relative to wild type (ln ratio); higher = more splicing; Tetrahymena group I intron in knt gene, E. coli kanamycin selection, DiMSum; sequences stand for … in CUCUCU…GGAGGGAAAAGUUAUCAGGCAUGCACCUGGUAGCUAGUCUUUAAACCAAUAGAUUGCAUCGGUUUAAAAGGCAAGACCGUCAAAUUGCGGGAAAGGGGUCAACAGCCGUUCAGUACCAAGUCUCAGGGGAAACUUUGAGAUGGCCUUGCAAAGGGUAUGGUAAUAAGCUGACGGACAUGGUCCUAACCACGCAGCCAAGUCCUAAGUCAACAGAUCUUCUGUUGAUAUGGAUGCAGUUCACAGACUAAAUGUCGGUCGGGGAAGAUGUAUUCUUCUCAUAAGAUAUAGUCGGACCUCUCCUUAAUGGGAGCUAGCGGAUGAAGUGAUGCAACACUGGAGCCGCUGGGAACUAAUUUGUAUGCGAAAGUAUAUUGAUUAGUUUUGGAGUACUCGUGGUCG
# Outline: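 A randomised library covering all eight P1ex-region intron nucleotides was built with the intron in the knt kanamycin-resistance gene on pET-22b(+) and held in E. coli BL21(DE3). Cells were grown overnight at 37°C or 30°C on LB agar, with or without 25 μg/mL kanamycin, plus 100 μg/mL carbenicillin, 50 μM IPTG and 0.2% rhamnose, and pooled colonies were amplicon-sequenced on an Illumina HiSeq 2500. DiMSum fitness is the error-weighted combination of wild-type-normalised replicate fold changes, kanamycin versus none.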
Sequence,self-splicing fitness (ln) (30 °C),self-splicing fitness (ln) (37 °C)
AUGUAGCAAUAUUACGAGGA,-3 ± 0.41,-2.11 ± 0.43
UACCAGCAAUAUUACGGUCA,-0.0407 ± 0.07,0.125 ± 0.1
CAUAAGCAAUAUUACGGGCC,,-1.25 ± 0.36
CGAUAGCAAUAUUACGCUUA,-2.23 ± 0.12,-1.19 ± 0.078
AUCCAGCAAUAUUACGGUGU,-1.07 ± 0.062,-0.834 ± 0.079
UACUAGCAAUAUUACGUGGA,-3.03 ± 0.22,-2.47 ± 0.21
UCCAAGCAAUAUUACGCCGU,-0.285 ± 0.13,-0.0434 ± 0.19
GGUAAGCAAUAUUACGUUAC,-3.08 ± 0.34,-1.35 ± 0.31
GCCCAGCAAUAUUACGGGUC,-4.06 ± 0.15,-2.4 ± 0.16
ACUGAGCAAUAUUACGAGGU,-2.91 ± 0.14,-1.99 ± 0.23
AAGCAGCAAUAUUACGCGGA,-2.59 ± 0.13,-1.46 ± 0.11
CUCCAGCAAUAUUACGUAGC,-2.49 ± 0.2,-2.36 ± 0.25
GUUUAGCAAUAUUACGCUUC,,-1.36 ± 0.43
CGCCAGCAAUAUUACGAUUG,-0.454 ± 0.06,0.047 ± 0.083
GCAUAGCAAUAUUACGGAUC,-2.47 ± 0.21,-1.63 ± 0.18
GGAAAGCAAUAUUACGUGCC,-1.94 ± 0.19,-2.01 ± 0.25
UGUCAGCAAUAUUACGUGCA,-0.626 ± 0.09,-0.232 ± 0.1
AGAUAGCAAUAUUACGACUU,-0.125 ± 0.065,-0.304 ± 0.086
UAAAAGCAAUAUUACGACAU,-1.09 ± 0.012,-0.402 ± 0.032
ACCGAGCAAUAUUACGAAUG,-2.51 ± 0.16,-2.7 ± 0.44
AGGCAGCAAUAUUACGCCAG,-0.444 ± 0.14,-0.82 ± 0.25
CCAUAGCAAUAUUACGUCCA,-1.27 ± 0.18,-1.85 ± 0.33
AUAUAGCAAUAUUACGUUCC,-1.69 ± 0.29,
GGCCAGCAAUAUUACGGCCA,-2.42 ± 0.16,-1.03 ± 0.17
UGACAGCAAUAUUACGUAAU,-2.19 ± 0.099,-0.915 ± 0.15
UAAUAGCAAUAUUACGAGGC,-3.59 ± 0.35,-1.46 ± 0.33

Sequence,self-splicing fitness (ln) (30 °C),self-splicing fitness (ln) (37 °C)
UGCUAGCAAUAUUACGUGCA,-2.54 ± 0.32,-1.99 ± 0.28
CCUCAGCAAUAUUACGUUUA,-4.17 ± 0.2,-2.57 ± 0.14
CCUCAGCAAUAUUACGUUGC,-3.32 ± 0.28,-2.52 ± 0.32
GCCAAGCAAUAUUACGAGUA,-3.27 ± 0.13,-1.61 ± 0.07
CCACAGCAAUAUUACGACCG,-0.115 ± 0.064,-0.00245 ± 0.083
GCAGAGCAAUAUUACGUCUA,-2.7 ± 0.23,-2.57 ± 0.24
CGCAAGCAAUAUUACGCUAG,-2.46 ± 0.16,-2.89 ± 0.2
UUCGAGCAAUAUUACGUUGU,-2.49 ± 0.18,-2.75 ± 0.24
UUAGAGCAAUAUUACGGAUG,-3.13 ± 0.19,-0.15 ± 0.15
UCUGAGCAAUAUUACGUUAG,-2.36 ± 0.14,-1.82 ± 0.17
GGAAAGCAAUAUUACGGCGU,-0.39 ± 0.071,-0.31 ± 0.1
AACAAGCAAUAUUACGGGUU,-2.34 ± 0.11,-2.91 ± 0.16
GGGGAGCAAUAUUACGGGAU,-3.44 ± 0.32,-1.51 ± 0.22
CAACAGCAAUAUUACGCUGG,-3.71 ± 0.18,-2.01 ± 0.16
AAAAAGCAAUAUUACGAAUG,-1.48 ± 0.091,-0.947 ± 0.12
GGAUAGCAAUAUUACGAAUU,-2.56 ± 0.21,-1.57 ± 0.19
CUUCAGCAAUAUUACGGGAG,-3.41 ± 0.24,-2.52 ± 0.22
UCAUAGCAAUAUUACGGGGU,-4.08 ± 0.27,-1.67 ± 0.18
CUCGAGCAAUAUUACGAUUG,-2.53 ± 0.34,-2.04 ± 0.3
GUUCAGCAAUAUUACGAUAU,-0.361 ± 0.086,0.524 ± 0.097
AGUUAGCAAUAUUACGAUAU,-1.55 ± 0.16,-0.311 ± 0.19
GGUCAGCAAUAUUACGGAUA,-0.579 ± 0.086,0.248 ± 0.11
CCCGAGCAAUAUUACGUCGC,-2.91 ± 0.25,-2.29 ± 0.4
UCUGAGCAAUAUUACGCCCG,-2.56 ± 0.28,-2.38 ± 0.49
GACGAGCAAUAUUACGUAAU,-2.61 ± 0.34,-2.16 ± 0.17
UUUAAGCAAUAUUACGUACG,-0.346 ± 0.16,0.322 ± 0.17
